Where no end group is shown, it is not given here. Where only a bound is given, the exact number is not on record here.

Holding throughout (format): biochemical
In assay [1] the target is T1, microbial transglutaminase (mTG) (Streptomyces mobaraensis, UniProt P81453).
T1 construct: purchased Covalab, France opr 0054
T1 sequence (P81453 77-407): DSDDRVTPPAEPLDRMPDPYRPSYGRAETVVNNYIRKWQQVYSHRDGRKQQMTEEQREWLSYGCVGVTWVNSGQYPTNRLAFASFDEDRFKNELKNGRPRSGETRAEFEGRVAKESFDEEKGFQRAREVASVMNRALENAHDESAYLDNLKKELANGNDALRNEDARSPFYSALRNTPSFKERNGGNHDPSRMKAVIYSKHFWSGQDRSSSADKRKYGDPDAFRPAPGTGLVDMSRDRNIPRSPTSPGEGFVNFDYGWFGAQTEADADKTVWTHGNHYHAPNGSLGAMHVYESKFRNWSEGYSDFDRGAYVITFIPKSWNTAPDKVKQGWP
The experiment in a line: Colorimetric assay: mTG incorporation of biotinylated peptides into immobilized spermine, apparent Km. The settings on record: spermine plate; for Kmapp: biotin tagged peptides at 160-0 μM, Lineweaver-Burk, nr = peptide not recognized by the enzyme; for reactivity of peptide with mTG (text on Table 3): biotinylated peptides. The text has this: To produce the Covabtest-spm plate, the procedure previously described in Mily et al (2009) was used.
For the screening of the peptide listed in table 2 (Biotinylated peptides) the inventors used our colorimetric assay to measure transglutaminase 2 (TG2) cross linking activity (Mily et al, 2009) and commercialized under ref opr0033 in which mTG was used instead of TG2 and described in this experience. The principle of the method is based on the transamidation activity of mTG, using covalently coupled spermine to carboxy-substituted polystyrene plates and biotinylated peptides. The assay consists of the incorporation of the glutamine gamma-carboxamide group into the immobilized spermine. The amount of biotinylated peptide bound to the plate, as measured by the activity of streptavidin-peroxidase, is directly proportional to the TG activity. Absorbance was measured at 450 nm using the microplate reader.
In order to compare the affinity of mTG to the preferred substrate, the peptides were used at different concentrations ranging from 160, 80, 40, 20, 10, 5, 2.5 and 0 μM. Then the apparent Km were determined for each peptide and were calculated by Lineweaver-Burk method (1/Absorbance=f(1/[mTG (μM)]).
In this experiment, spermine was conjugated into the plate as described in B-II-4. Biotinylated peptides described in table 3 were incubated with mTG at different concentration (160, 80, 40, 20, 10, 5, 2.5 and 0 μM). […] Even if E seems to abolish the reactivity of the peptides this cannot be due to the negative charge only but also to the nature of the amino acides at the position X+1, X+2 and X+3. […] This is confirmed with LN-11Q8Q10 peptide.

The target of assay [2] is T1, microbial transglutaminase (mTG). Description: mTG-mediated incorporation of biotin-X-cadaverine into peptides coupled on Covabtest plate. The settings on record: 15 nmoles peptide coupled to plate, biot-cad 0.1 mg/ml, mTG 10 ng/well. The method, then: The coupling method was previously described by the Applicant (V. Thomas et al, 2004) and also in the corresponding data sheet of CovAbtest-Plate™ which is commercially available from Covalab (Ref #opr0004). Briefly, in separate tubes a solution mixture containing 150 μM of each peptide dissolved in 10 mM phosphate buffer pH5, 5 mM EDAC and 5 mM NHS was incubated for 30 min under gentle shaking. The resulting activated NHS-carboxyl C-terminal moiety of each peptide (15 nmoles) was used to be conjugated in each well of CovAbtest-Plate™ previously deprotonated during 15 min with 150 μl 0.6% sodium bicarbonate per well. The microtiter plate was then incubated during 2 hrs at room temperature and washed extensively with Tris Buffer Saline.
For this experiment we used the same procedures described by V Thomas et all (2004) and also in the Covalab's commercialized kit (opr0033). Briefly the Lyophilized transglutaminase was reconstituted in 40 mM tris buffer pH 8 and 50 μl of each mTG at 200 ng/ml and at 40 ng/ml were added in the wells containing 50 μl of biotin-X-cadaverine. The enzymatic mixture was incubated for 15 min at room temperature under gentle shaking. Then the plates were washed 3 times with TBS-Tween20 followed by the addition of 100 μl of diluted HRP labeled streptavidine ( 1/2000 in TBS Tween20, 0.5% BSA) in each well. After 30 min at room temperature and 3 washings in TBS-Tween20, 100 μL of TMB substrate were added and after 5 min the colour development was stopped using 100 μl of 0.5 M sulfuric acid. Absorbances at 450 nm were measured using a microplate reader (Multiskan, Labsystems, Helsinki, Finland).
To screen the peptide library (Covalab) and identify the putative new substrates of mTG we used Covabtest-peptide (described in B-I-1) in which the peptides were covalently coupled into the plates and the amine substrate Biotin-cadeverine (biot-cad) was free in solution. In this experiment 15 nmoles of each peptide (table 2) were covalently conjugated to microtiter plate and the incorporation of biot-cad (0.1 mg/ml) catalyzed by mTG (10 ng/well) was determined following the experiment described in B-II-1. Among all the peptides tested only few peptides were recognized by mTG as Gln (Q) donor to incorporate biot-cad as shown in the FIG. 1. The enzymatic activity was different between the peptide substrates. […] When Q is replaced by N (peptide HH12N11) no reactivity of the mTG was observed confirming the specificity of the enzyme to Gln donor. Moreover, if the reactivity of the 4 peptides (HH12Q11, DH6Q7, HG14Q11 and WG10Q7) is compared, it can be observed that the reactivity of the Gln depends on its position in the peptide sequence. In the most reactive peptides Q is located at the C-terminal. […]

For assay [3] the target is unchanged. Description: mTG incorporation of biot-cad into coated BSA-peptide conjugate, with free-peptide competition. The settings on record: 1 μg/ml coated, mTG 100 ng/ml, biotin-cad 0.1 mg/ml. The method, then:
2 mg of each peptide was dissolved in 1 ml of deionized water and 150 nmoles were mixed with 0.5 mg BSA solubilized in 50 mM bicarbonate buffer pH9.5. After shaking, glutaraldehyde was added at a final concentration of 0.25% (v/v). The mixtures were kept at room temperature during 16 hrs under gentle shaking. At the end of this incubation time, sodium borohydride was added at a final concentration of 10 mg/ml to stabilize the cross-linking between BSA and the peptides. After 2 hours each mixture of peptide-BSA was dialyzed separately in PBS to remove any free peptides.
High binding 96 wells-microtiter plates (Costar) were used to immobilize BSA-peptide and to human IgG-peptide conjugates prepared as described in M-4 and M-5. For these experiments, conjugates were prepared at 50 μg/ml in 50 mM sodium carbonate buffer pH 9 and 100 μl of each solution was dispensed in the number of wells needed for the experiment. After overnight incubation at 4° C., the plates were washed extensively with Tris Buffer Saline (TBS) and were ready to be used for TG activity.
The same procedure was used as described in B-II-1
In the literature its well known that many proteins are not substrate of transglutaminase even if many glutamine residues are present in their structures (Gorman J J, Folk J E. J Biol Chem. 1984 Jul. 25; 259(14):9007-10). […]

For assay [4] the target is unchanged. The experiment in a line: mTG reaction on preferred substrates and Q-to-N mutated analogues. The note with it: mutated analogue peptides. The text has this: In order to confirm the specificity of mTG reaction on the highly reactive peptide HH12Q11 and its small derivatives DH6N5, the inventors synthesized the mutated analogue peptides in which the Gln donors (Q) were replaced by asparagine (N).

On to “DVYSQE (also: biotin, place not given here) [bDE6Q5]”, for which, in assay [1], the Kmapp result is on record as “nr” and the “reactivity of peptide with mTG (text on Table 3)” value (“reactivity of peptide with mTG” below) is reported as “reactivity seems to be lost”.
For the substance “HDLMWPDVYSQH (also: biotin, place not given here) [bHH12Q11]”, the Kmapp in assay [1] was determined as 3.08 µM.
Regarding YEAQR [BEST3], in assay [1], the Kmapp was found to be 0.08 µM and the “reactivity of peptide with mTG” value was “excellent substrates”.
Take “GGSPLAQSHGGS (Peptide GS12Q7) [reference compound]”: in assay [2], the “reactivity as Gln donor for mTG incorporation of biot-cad” value (“reactivity as Gln donor” below) was “low reactivity”.
As to WPDVYSQH (also: biotin) [bWH8Q7], the Kmapp in assay [1] was 11.40 µM.
With “free BSA: non modified bovine serum albumin, control [reference compound]”, the “incorporation of biot-cad by mTG into coated protein” value in assay [3] is recorded as “no reactivity”.
With “HNKSQAL (also: biotin tag, position not given here) [bHL8Q6]”, the Kmapp result in assay [1] is on record as “nr”.
Consider DVYSNH (Peptide DH6N5), for which the “mTG reactivity after replacement of Q by N” value in assay [4] was “abolish totally the enzyme reactivity”.
On to “KEEFQPL (also: biotin, place not given here) [bKL7Q5]”, for which, in assay [1], the Kmapp entry was “nr”.
On the same count and under the same terms, the result for “FWIQE (also: biotin, place not given here) [bFE5Q4]” reads 5.00 µM.
The same measure, in the same setting: for “PLVQSH (also: biotin, place not given here) [bPH6Q4]” the value was 14.77 µM; for “CHQSYV (also: biotin, place not given here) [bCV6Q3]”, “nr”; for “HDLMWPDVYSNH (also: biotin, place not given here) [bHH12N11]”, “nr”.
On the same count and under the same terms, for WPLMMQD (also: biotin) [bWD7Q7] the value was “nr”.
On to “PSVQES (not fully specified; also: biotin tag, site not given here) [bPS6Q3]”, for which the Kmapp result in assay [1] is recorded as “nr”.
On the same count and under the same terms, for “DVYSQH (also: biotin, place not given here) [bDH6Q5]” the value was 33.10 µM.
On to HDLMWPDVYSNH [HH12N11], for which the “mTG reactivity after replacement of Q by N” value in assay [4] was “abolish totally the enzyme reactivity”. Besides, the “reactivity as Gln donor” value in assay [2] is “no reactivity”.
“VWRSQYF (also: biotin, place not given here) [bVF7Q5]”: the Kmapp entry in assay [1] was “nr”.
Still for that read-out and setting: for “SPLKHQEY (also: biotin, place not given here) [bSY8Q6]” the value was more than 50.00 µM.
Regarding YEIQR [BEST1], in assay [1], the Kmapp stood at 0.086 µM and the “reactivity of peptide with mTG” value was “excellent substrates”.
The matching figures for “LLTLPSVSEQN (also: biotin, place not given here) [bLN11Q10]”: “nr” and “inhibit completely the reactivity”.
In the case of DVYSQH (Peptide DH6Q5), the “reactivity of peptide with mTG” value in assay [1] is reported as “highly reactive with mTG”.
Consider YEVQK [BEST5], for which, in assay [1], the Kmapp was determined as 0.126 µM and the “reactivity of peptide with mTG” value is “excellent substrates”.
Regarding HSQALP [bHP6Q3(A)], in assay [1], the Kmapp entry is “nr”.
On the same count and under the same terms, the result for “LLTLPSVQEQN (also: biotin, place not given here) [bLN11Q8-10]” reads 172.00 µM.
For the substance FWIQE (Peptide FE5Q4), the “reactivity of peptide with mTG” value in assay [1] was “high reactivity with mTG”. In addition, in assay [2], the “reactivity as Gln donor” value is reported as “good substrate for mTG”.
For the substance YEAQK [BEST2], in assay [1], the Kmapp stood at 0.114 µM and the “reactivity of peptide with mTG” value was “excellent substrates”.
Turning to WPDVYSQH (Peptide WH8Q7), the “reactivity of peptide with mTG” value in assay [1] was “highly reactive with mTG”.
As for WPAQR [BEST4], in assay [1], the Kmapp came to 0.225 µM and the “reactivity of peptide with mTG” value is on record as “excellent substrates”.
On to “DVYSNH (also: biotin, place not given here) [bDH6N5]”, for which, in assay [1], the Kmapp result was “nr”.
